Measured values: patent US20260166131A1, “METHOD FOR PROMOTING PATHOLOGICAL TDP-43 PROTEIN DEGRADATION, AND DRUG” (TALENGEN INTERNATIONAL LIMITED, priority 2022, published 2026)
“And” between values parts separate entries of the source, which are not always exact repeats. Equal values may be shown once.

What was measured:
TDP-43 [1] = target: T1, TDP-43 (Homo sapiens, UniProt Q13148); test: Cleavage of TDP-43 protein in normal mouse brain homogenate (Western blot); type: biochemical; settings: normal mouse brain homogenate + recombinant TDP-43, 37° C. 3 h, vs vehicle control group
T1 construct: purchased Nanjing GenScript Biotechnology Co., Ltd. C134WHE160-2/P5HF001
Description: Four C57BL/6J male mice aged 11-12 weeks and weighing 18-25 g were sacrificed, and the whole brain was taken out to weigh. 1×PBS was added at 150 mg tissue/mL PBS (Thermo Fisher, pH 7.4; 10010-031) to homogenize at 4° C. (1 min, 3-4 times). After homogenization, centrifugation was performed at 4° C. (12000 rpm, 20 min), and the supernatant, i.e., the brain homogenate, was placed in a new EP tube.
Eppendorf (EP) tubes were set as: (1) blank group, (2) blank control group, (3) vehicle control group, and (4) plasminogen group, with 5 parallels in each group. The blank group was added with 21.5 μL of normal saline, 4.6 μL of vehicle solution (10 mM sodium citrate, 2% arginine hydrochloride, 3% mannitol, pH 7.4), and 23.9 μL of mouse brain homogenate; the blank control group was added with 21.5 μL of normal saline, 2.3 μL of plasminogen solution (2 mg/mL), and 23.9 μL of mouse brain homogenate; the vehicle control group was added with 20.5 μL of TDP-43 (Nanjing GenScript Biotechnology Co., Ltd., custom-expressed human TDP-43, C134WHE160-2/P5HF001, 1.05 mg/mL), 4.6 μL of vehicle solution, and 23.9 μL of mouse brain homogenate; the plasminogen group was added with 20.5 μL of TDP-43 (1.05 mg/mL), 2.3 μL of plasminogen solution (2 mg/mL), and 23.9 μL of mouse brain homogenate. After adding each group of samples, they are incubated at 37° C. for 3 h, then adding 50 μL of 0.1% trifluoroacetic acid solution to terminate the reaction.
A 12% gel was prepared according to the SDS-PAGE gel preparation instructions. Each group of samples was mixed with 4× loading buffer (TaKaRa, e2139) at a volume ratio of 3:1, heating at 100° C. for 5 min, cooling and centrifuging for 2 min, and then 20 μL was taken for sample loading. […] After washing 4 times with TBST, the PVDF membrane was placed on a clean imaging plate, Immobilon Western HRP Substrate (MILLIPORE, WBKLS0100) was added for color development, and photos were taken under a biomolecular imager, then performing quantitative analysis by using Image J.

[2] = Plasminogen level (ELISA) and plasmin activity (enzyme substrate method) in brain homogenate of LPS-treated SOD1-G93A mice; type: in vivo, mouse; settings: LPS 5 mg/kg intratracheal, 50 mg/kg tail vein single dose, 6 hours, vs vehicle group
Description: Eight 22-week-age SOD1-G93A mice were randomly divided into two groups: a vehicle group and a plasminogen group, with 4 mice in each group. 2.5 mg/mL bacterial lipopolysaccharide (LPS) (Beijing Solebow Technology Co., Ltd., L8880) was administered to the mice in the vehicle group and the plasminogen group via intratracheal instillation, with a modeling dose of 5 mg/kg. Four C57 mice of the same age were selected as normal control mice. Administration began 3 days after LPS treatment. […] The mice were killed 6 hours after the single administration, and the brain tissues were obtained. After homogenization, the plasminogen level was detected by ELISA, and the plasmin activity was detected by enzyme substrate method.

[3] = Plasma plasminogen level after tail vein injection in FAD (Alzheimer's model) mice (ELISA); type: in vivo, mouse
Description: Twenty-seven 16-week-age B6SJL-Tg (APPSwFlLon, PSEN1*M146L* L286V) 6799Vas Mmjax (Stock Number: 034840) (FAD mice for short) (breeding mice were purchased from Jackson Laboratory, USA) were randomly divided into three groups: three mice in vehicle control group, 12 mice in 6 mg/kg plasminogen group, and 12 mice in 50 mg/kg plasminogen group. The mice in the vehicle control group were injected with vehicle at 5 ml/kg by tail vein, the mice in the 6 mg/kg plasminogen group were injected with plasminogen (1.2 mg/ml) at 6 mg/kg body weight by tail vein, and the mice in the 50 mg/kg plasminogen group were injected with plasminogen (10 mg/ml) at 6 mg/kg body weight by tail vein. The mice in the vehicle control group were killed 2 hours after administration, and their blood was collected. Three mice in the 6 mg/kg plasminogen group and three mice in the 50 mg/kg plasminogen group were killed 2, 6, 12 and 24 hours after administration, and their blood was collected. After the blood was centrifuged (3500 rpm, 10 min, 4° C.), the supernatant was taken to detect according to the instructions of Human Plasminogen ELISA Kit (manufacturer: AssayMax, catalog number: EP1200-1). The concentration of each sample was calibrated by using human plasminogen working standard as the internal standard. The calibrated concentration was divided by the total protein concentration to calculate the amount of plasminogen per unit of total protein in each sample and perform statistical analysis.

[4] = Plasmin activity in brain homogenate of FAD mice (enzyme substrate kinetic method); type: in vivo, mouse; settings: 2 hours
Description: 85 μL/well of seven different concentrations of standard solution, blank, and sample were added to the ELISA plate (manufacturer: NUNC, catalog number: 446469) in sequence, and then 15 μL of 20 mM S-2251 solution (manufacturer: Chromogenix, catalog number: 82033239) was added to each well to incubate at 37° C. Starting from 0 min of reaction, the A405 absorbance value was read in a multifunctional microplate reader every 5 min until the reaction time was 90 min. All reactions were fitted with a straight line by time and absorbance, and the slope of the straight line was the reaction rate of the standard/sample (ΔA405/min). Finally, the potency value of the standard substance and ΔA405/min were used to create a standard curve to calculate the potency of the measured samples. The plasmin activity per unit of total protein in each sample was calculated.

[5] = Brain tissue plasminogen level after tail vein injection in SOD1-G93A mice (ELISA)
Description: Twenty-seven 10-15 week-age B6.Cg-Tg (SOD1-G93A) 1Gur/J (SOD1-G93A) mice (pedigree number: 004435) (referred to as SOD1-G93A mice) (breeding mice were purchased from Jackson Laboratory, USA) were randomly divided into three groups: three in the vehicle control group, 12 in the 6 mg/kg plasminogen group, and 12 in the 50 mg/kg plasminogen group. The mice in the vehicle control group were injected with vehicle at 5 ml/kg by tail vein, the mice in the 6 mg/kg plasminogen group were injected with plasminogen (1.2 mg/ml) at 6 mg/kg body weight by tail vein, and the mice in the 50 mg/kg plasminogen group were injected with plasminogen (10 mg/ml) at 6 mg/kg body weight by tail vein.
Brain tissue was obtained from the mice sacrificed in Example 11, homogenizing and detecting according to the instructions of Human Plasminogen ELISA Kit (manufacturer: AssayMax, catalog number: EP1200-1). The human plasminogen working standard in the kit was used as the internal standard to calibrate the concentration of each sample. The calibrated concentration was divided by the total protein concentration to calculate the amount of plasminogen per unit of total protein in each sample and perform statistical analysis.

TDP-43 [6] = target: TDP-43 (Mus musculus, UniProt Q921F2); test: TDP-43 in spinal cord tissue of SOD1-G93A mice after plasminogen (Western blot); type: in vivo; parameters: from tissue; host or cells: mouse spinal cord, gluteal muscle, brain, kidney cell nuclei; settings: 50 mg/kg tail vein, 24 hours after administration, vs vehicle group, P<0.05
Description: Six SOD1-G93A mice aged 10-15 weeks were randomly divided into two groups: 3 mice in vehicle control group, and 3 mice in plasminogen group. The vehicle control group mice were injected with the vehicle at 5 ml/kg by tail vein, and the plasminogen group mice were injected with plasminogen (10 mg/ml) at 50 mg/kg body weight by tail vein. The mice were killed 24 hours after administration, and the spinal cords were obtained. After homogenization, TDP-43 was detected by western blot.

T1 sequence (Q13148 whole entry): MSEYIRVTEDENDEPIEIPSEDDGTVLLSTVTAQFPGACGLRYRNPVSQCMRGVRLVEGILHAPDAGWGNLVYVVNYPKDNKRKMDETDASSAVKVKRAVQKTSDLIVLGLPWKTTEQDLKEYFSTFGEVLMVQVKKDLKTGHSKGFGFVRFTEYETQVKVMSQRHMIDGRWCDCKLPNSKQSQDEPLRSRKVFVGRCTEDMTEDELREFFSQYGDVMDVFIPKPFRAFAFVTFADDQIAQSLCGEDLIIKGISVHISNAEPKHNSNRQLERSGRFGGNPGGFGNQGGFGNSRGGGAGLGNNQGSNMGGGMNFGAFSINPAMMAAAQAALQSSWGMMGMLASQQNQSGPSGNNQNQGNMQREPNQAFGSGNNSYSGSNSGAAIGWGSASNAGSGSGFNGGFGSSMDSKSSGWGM
Sequence of TDP-43 (Mus musculus, UniProt Q921F2) (Q921F2 whole entry): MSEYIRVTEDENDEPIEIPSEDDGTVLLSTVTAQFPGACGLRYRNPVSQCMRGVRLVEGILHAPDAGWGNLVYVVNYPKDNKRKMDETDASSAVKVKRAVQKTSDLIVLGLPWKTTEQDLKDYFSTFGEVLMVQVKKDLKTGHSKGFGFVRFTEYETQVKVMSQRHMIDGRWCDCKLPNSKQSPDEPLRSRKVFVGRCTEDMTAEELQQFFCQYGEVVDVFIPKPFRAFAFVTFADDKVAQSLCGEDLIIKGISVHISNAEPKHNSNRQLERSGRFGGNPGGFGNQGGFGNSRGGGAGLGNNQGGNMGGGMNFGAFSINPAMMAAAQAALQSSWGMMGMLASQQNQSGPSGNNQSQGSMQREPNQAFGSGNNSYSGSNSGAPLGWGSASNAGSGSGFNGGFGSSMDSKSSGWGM

B1: plasminogen: human plasminogen purified from human donor plasma, in which human Lys-plasminogen and Glu-plasminogen are >98% (protein)
chain: KVYLSECKTGNGKNYRGTMSKTKNGITCQKWSSTSPHRPRFSPATHPSEGLEENYCRNPDNDPQGPWCYTTDPEKRYDYCDILECEEECMHCSGENYDGKISKTMSGLECQAWDSQSPHAHGYIPSKFPNKNLKKNYCRNPDRELRPWCFTTDPNKRWELCDIPRCTTPPPSSGPTYQCLKGTGENYRGNVAVTVSGHTCQHWSAQTPHTHNRTPENFPCKNLDENYCRNPDGKRAPWCHTTNSQVRWEYCKIPSCDSSPVSTEQLAPTAPPELTPVVQDCYHGDGQSYRGTSSTTTTGKKCQSWSSMTPHRHQKTPENYPNAGLTMNYCRNPDADKGPWCFTTDPSVRWEYCNLKKCSGTEASVVAPPPVVLLPDVETPSEEDCMFGNGKGYRGKRATTVTGTPCQDWAAQEPHRHSIFTPETNPRAGLEKNYCRNPDGDVGGPWCYTTNPRKLYDYCDVPQCAAPSFDCGKPQVEPKKCPGRVVGGCVAHPHSWPWQVSLRTRFGMHFCGGTLISPEWVLTAAHCLEKSPRPSSYKVILGAHQEVNLEPHVQEIEVSRLFLEPTRKDIALLKLSSPAVITDKVIPACLPSPNYVVADRTECFITGWGETQGTFGAGLLKEAQLPVIENKVCNRYEFLNGRVQSTELCAGHLAGGTDSCQGDSGGPLVCFEKDKYILQGVTSWGLGCARPNKPGVYVRVSRFVTWIEGVMRNN
significantly lower: amount of TDP-43 monomer (TDP-43 [1]; WB optical density) | amount of high molecular weight TDP-43 protein (HMW) (TDP-43 [1]) | amount of low molecular weight TDP-43 fragment (LMW) (TDP-43 [1]) | amount of TDP-43 monomer in spinal cord tissue (TDP-43 [6])
increases significantly: plasmin activity level in brain tissue ([4]; tail vein injection of 6 mg/kg, 6 mg/kg) | plasmin activity level in brain tissue ([4]; tail vein injection of 50 mg/kg, 50 mg/kg)
12 to 24 h: time within which plasminogen is almost completely metabolized (plasma) ([3]; tail vein 50 mg/kg and 6 mg/kg) | time within which plasminogen is almost completely metabolized (brain tissue) ([5]; SOD1-G93A mice, tail vein 50 mg/kg and 6 mg/kg)
significantly higher: plasmin activity in brain tissue homogenate [2] | plasminogen level in brain tissue homogenate [2] | plasma plasminogen level, 50 mg/kg group compared with 6 mg/kg group ([3]; tail vein) | level in brain tissue, 50 mg/kg group compared with 6 mg/kg group ([4]; tail vein) | plasminogen level in brain tissue, 50 mg/kg group compared with 6 mg/kg group ([5]; SOD1-G93A mice, tail vein)
3.47% and 4.94% and 6.79%: ratio of brain tissue plasminogen level to blood plasminogen level ([5]; mouse, in vivo)
increase significantly: plasma plasminogen level ([3]; tail vein injection of 6 mg/kg) | plasma plasminogen level ([3]; tail vein injection of 50 mg/kg) | plasminogen level in brain tissue ([5]; SOD1-G93A mice, tail vein injection of 6 mg/kg) | plasminogen level in brain tissue ([5]; SOD1-G93A mice, tail vein injection of 50 mg/kg)
